Source: patent US20110123511A1 (ICAHN SCHOOL OF MEDICINE AT MOUNT SINAI, published 2011)
Where a chain is given by its changes, count along the chain named.

B1: vSET triple mutant KR(M)R-to-AA(M)A (aa 85-88) (enzyme)
chain: MFNDRVIVKKSPLGGYGVFARKSFEKGELVEECLCIVRHNDDWGTALEDYLFSRKNMSAMALGFGAIFNHSKDPNARHELTAGLAAMAIFTIKPIAIGEEITISYGDDYWLSRPRLTQN
notes: elutes as a dimer like the wild type; also called KR(M)R/AA(M)A
B2: recombinant wild-type vSET expressed in E. coli BL21 (enzyme)
chain: B1 chain with A85K, A86R, A88R
notes: also called hexa-histidine tagged vSET; not shown: tag in the

Target: the molecule itself
Experiment: gel filtration chromatography (self-association, homodimer)

Protein | binding result
B1 | binds
B2 | binds
